“Also recorded” adds a separate entry of the source.

Assay [1] deals with venous thrombus formation. The conditions noted are these: dose-dependent; cited from earlier work.
For another assay, the target named is FXIa (Homo sapiens, UniProt P03951). As to conditions: aPTT-based test, FXI deficient plasma; cited from earlier work.
For a further assay, the system named is human neutrophils. The experiment in a line: Phagocytosis assay with pHrodo E. coli bioparticles. It is filed as cell-based. The conditions noted are these: for neutrophil phagocytic activity: 3 donors. The protocol: The effect of Ir-CPI on the phagocytic activity of human neutrophils was assessed. For this purpose, freshly isolated neutrophils from 3 donors were pre-treated for 1 h with recombinant Ir-CPI at 2 different concentrations (5.0 or 15.3 μg/mL) and then incubated in the presence of pH-rodo® E. coli bioparticles (Sartorius). To evaluate the phagocytic activity, fluorescence was monitored every 15 min for up to 48 hours.
Neutrophils were directly isolated from whole blood by using the EasySep™ Direct Human Neutrophil Isolation Kit (StemCell) and according to the manufacturer's protocol. The purification is a negative selection (elimination of unwanted cell populations) to obtain intact neutrophils.
pHrodo® Green E. coli Bioparticles were resuspended at 1 mg/mL in PBS, vortexed and sonicated according to the manufacturer's protocol and then stored at 4° C. overnight. Then, 25.000 freshly isolated neutrophils, resuspended in RPMI 1640 medium containing 10% of FBS and supplements (2 mM Glutamine, 1% NEAA, 1 mM Sodium pyruvate, 50 μM B-mercaptoethanol and 50 μg/ml Gentamycin), were seeded per well in a 96 well-plate and preincubated for 1 h at 37° C., 5% CO2 with Ir-CPI at two different concentrations (2 μM and 0.65 μM). Then, pHrodo® Green E. coli Bioparticles were added at 10 μg/well and the plate was incubated in the Incucyte® Live-Cell Analysis System. Pictures were taken every 15 minutes for 48 hours. Two negative controls were performed: (1) only the neutrophils were seeded in absence of Ir-CPI and without particles, and (2) neutrophils were seeded in absence of Ir-CPI and incubated with the particles. All conditions were performed in triplicates.
To analyse neutrophil phagocytosis, the Green total area (μm2/image) was measured in each well every 15 minutes for 48 hours (2 pictures/well). Briefly, the IncuCyte® Basic Analysis software allows for the quantification of fluorescent object metrics in real-time. […]

In assay [2] the test system is extrinsic or common pathway. The conditions noted are these: in vitro; cited from earlier work.
In another assay the target is Factor Xa (Homo sapiens, UniProt P00742). As to conditions: cited from earlier work.
Factor Xa, sequence (P00742 41-179 limits assumed): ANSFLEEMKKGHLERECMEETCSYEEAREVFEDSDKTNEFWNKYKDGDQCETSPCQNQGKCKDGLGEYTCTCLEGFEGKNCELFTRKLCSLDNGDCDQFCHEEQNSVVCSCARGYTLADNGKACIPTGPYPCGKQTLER
Factor Xa, sequence (P00742 235-488 limits assumed): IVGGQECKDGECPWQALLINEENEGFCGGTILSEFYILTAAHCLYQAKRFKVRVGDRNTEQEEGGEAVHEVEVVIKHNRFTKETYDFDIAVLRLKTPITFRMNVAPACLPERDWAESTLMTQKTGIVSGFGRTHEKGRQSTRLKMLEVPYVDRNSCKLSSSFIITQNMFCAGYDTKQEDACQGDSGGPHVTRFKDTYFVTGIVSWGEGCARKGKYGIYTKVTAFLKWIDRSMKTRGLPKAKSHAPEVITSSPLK
The subject of assay [3] is neutrophils isolated from bone marrow of femurs of mice. Nature of the assay: Neutrophil activation following incubation with TNFα (flow cytometry). It is filed as cell-based, mice (C57BL/6). Here is the method:
Neutrophils were isolated from the bone marrow of femurs of mice (C57BL/6) as previously described (Hu 2012), using FR-1-coupled magnetic beads (anti-Ly6G Microbead Kit, Miltenyi Biotec). For activation with TFNα, cells were harvested, centrifugated and incubated during 30 min with or without 2 ng/ml of TNFα in Hanks solution (Gibco). Next, neutrophils were incubated with Ir-CPI (0.65 or 2 μM) in Hanks solution (1 h at 37° C.). For activation with ATP, cells were harvested, centrifugated and incubated with ATP 10 μM and Ir-CPI (0.65 or 2 μM) in Hanks solution (1 h at 37° C.). After washing of cells, expression of CD11b, activated CD11b or Ly6G was assessed by flow cytometry (Beckman Coulter Gallios). Antibodies used for neutrophil identification and activation analyses were IRR IgG1-FITC (irrelevant antibody), anti-CD45-APC, anti-Ly6G-PE and anti-CD11b-FITC or Alexa Fluor 647 anti-activated CD11b-. Analysis of results was performed using the Kaluza software (Beckman Coulter). […]
Neutrophils isolated from bone marrow of femurs of mice were submitted to different in vitro experimental conditions (untreated control, priming with TNFα and/or incubation with Ir-CPI) to assess the effect of Ir-CPI on their activation status. The activation status was assessed by analyzing the percentage of CD11b expression at the surface of neutrophils (FIG. 16).

The next assay deals with FXI (Homo sapiens, UniProt P03951). The conditions noted are these: cited from earlier work.
Another assay concerns the target plasmin (Homo sapiens, UniProt P00747). The conditions noted are these: cited from earlier work.
Assay [4] relates to neutrophils isolated from bone marrow of femurs of mice. Nature of the assay: Neutrophil activation following incubation with ATP (flow cytometry). Type of assay: cell-based, mice (C57BL/6). Here is the method: Neutrophils were isolated from the bone marrow of femurs of mice (C57BL/6) as previously described (Hu 2012), using FR-1-coupled magnetic beads (anti-Ly6G Microbead Kit, Miltenyi Biotec). For activation with TFNα, cells were harvested, centrifugated and incubated during 30 min with or without 2 ng/ml of TNFα in Hanks solution (Gibco). Next, neutrophils were incubated with Ir-CPI (0.65 or 2 μM) in Hanks solution (1 h at 37° C.). For activation with ATP, cells were harvested, centrifugated and incubated with ATP 10 μM and Ir-CPI (0.65 or 2 μM) in Hanks solution (1 h at 37° C.). After washing of cells, expression of CD11b, activated CD11b or Ly6G was assessed by flow cytometry (Beckman Coulter Gallios). Antibodies used for neutrophil identification and activation analyses were IRR IgG1-FITC (irrelevant antibody), anti-CD45-APC, anti-Ly6G-PE and anti-CD11b-FITC or Alexa Fluor 647 anti-activated CD11b-. Analysis of results was performed using the Kaluza software (Beckman Coulter).
Percentage of activation marker expression was presented as mean±SEM (n=3independent experiments for TNFα activation and n=2 independent experiments for ATP activation). For experiments with TNFα activation, a one-way ANOVA followed by a
Neutrophils isolated from bone marrow of femurs of mice were submitted to different in vitro experimental conditions (untreated control or incubation with Ir-CPI, and with or without ATP) to assess the effect of Ir-CPI on their activation status. The activation status was assessed by analyzing the percentage of CD11b, activated CD11b and Ly6G expressions at the surface of neutrophils (FIG. 17).
(In general: In flow cytometry, cells or beads pass a laser one at a time.)

plasmin, sequence (P00747 97-580 limits assumed, species assumed): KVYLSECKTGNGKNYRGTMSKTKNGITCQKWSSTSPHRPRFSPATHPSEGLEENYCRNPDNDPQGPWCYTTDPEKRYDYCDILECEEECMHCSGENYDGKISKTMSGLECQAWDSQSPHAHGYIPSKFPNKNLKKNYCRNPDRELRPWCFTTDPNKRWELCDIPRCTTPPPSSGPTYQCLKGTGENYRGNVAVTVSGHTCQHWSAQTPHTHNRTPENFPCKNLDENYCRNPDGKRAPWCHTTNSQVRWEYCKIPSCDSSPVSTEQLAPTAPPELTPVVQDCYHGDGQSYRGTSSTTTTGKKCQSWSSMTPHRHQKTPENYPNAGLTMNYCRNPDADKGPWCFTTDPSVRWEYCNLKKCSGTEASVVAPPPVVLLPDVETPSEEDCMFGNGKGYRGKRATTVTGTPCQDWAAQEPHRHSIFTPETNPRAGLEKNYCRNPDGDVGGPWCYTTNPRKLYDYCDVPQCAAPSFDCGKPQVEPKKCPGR
plasmin, sequence (P00747 581-810 limits assumed, species assumed): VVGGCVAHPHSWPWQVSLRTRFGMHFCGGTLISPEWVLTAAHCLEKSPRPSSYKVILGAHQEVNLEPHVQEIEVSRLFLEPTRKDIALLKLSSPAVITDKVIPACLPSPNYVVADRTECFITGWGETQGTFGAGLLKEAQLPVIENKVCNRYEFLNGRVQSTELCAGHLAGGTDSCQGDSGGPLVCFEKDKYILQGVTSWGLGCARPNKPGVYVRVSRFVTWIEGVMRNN

B1: Ir-CPI: Ixodes ricinus salivary gland polypeptide, contact phase inhibitor, MW=7660 Da; sequence SEQ ID NO: 1 or SEQ ID NO: 2 (protein)
chain: ANHKGRGRPAKCKLPPDDGPCRARIPSYYFDRKTKTCKEFMYGGCEGNENNFENITTCQEECRAKKV
Regarding B1, the venous thrombus formation entry in [1] was “reduces venous thrombus formation”. Besides, the FXIa clotting activity result with FXIa is reported as “inhibits”. Also, the neutrophil phagocytic activity entry in the assay with human neutrophils (recombinant Ir-CPI 5.0 μg/mL (0.65 μM)) was “no evidence for an effect”. Besides, the neutrophil phagocytic activity result in the assay on human neutrophils (recombinant Ir-CPI 15.3 μg/mL (2 μM)) is recorded as “marginal (p-value just below threshold for significance) evidence for an increase”. The “decrease of the phagocytic activity of human neutrophils” value in the assay on human neutrophils (whatever the concentration) is “did not induce a decrease”. In assay [2], the “Prothrombin Time (PT)” value is “no effect”, the “Thrombin Time (TT)” value is on record as “no effect” and the “dilute Russell's Viper Venom time (dRVVT)” value is listed as “no effect”. The “activity on Factor Xa” value with Factor Xa is “totally inactive”. For the same molecule, in assay [3] (neutrophils primed with TNFα, Ir-CPI 2 μM, *p<0.05), the “CD11b expressed at cell surface” value is listed as “significant reduction”. The “expression of CD11b” value in assay [3] (untreated neutrophils, Ir-CPI 0.65 and 2 μM) is listed as “no effect”. Besides, the “binding to FXI zymogen” value with FXI is listed as “but not to their zymogen forms; also recorded: unable to bind”. For the same molecule, the binding to plasmin result with plasmin was “binds”. Further, the “expression of Ly6G at the surface of neutrophils” value in assay [4] (ATP 10 μM, Ir-CPI 0.65 or 2 μM (FIG. 17A)) is reported as “decreased”. Besides, the “expression of activated CD11b at the surface of neutrophils” value in assay [4] (ATP 10 μM, Ir-CPI 0.65 or 2 μM (FIG. 17C)) is on record as “significantly decreased”. Also, the “expression of CD11b” value in assay [4] (ATP experiment (FIG. 17B), Ir-CPI 0.65 and 2 μM) is “no effect”.

(Values after patent US20250295734A1, “ANTICOAGULANT PROTEINS AND THEIR USE FOR TREATING DISEASES ASSOCIATED WITH THE ACTIVATION OF NEUTROPHILS” (BIOXODES, priority 2018, published 2025).)
